Measurements as given in paper PMC10917059, “RhoU forms homo-oligomers to regulate cellular responses” (Journal of Cell Science, 2024).

Molecular target: the molecule itself
Experiment: cross-linking; lysates of transfected COS7 cells in 20 mM HEPES pH 7.2, 1% Triton X-100, incubated with DSS (0.25 mM in the methods; increasing concentrations in the results) or DMSO for 30 min at 4°C; anti-Myc blot

B1: Myc–RhoU (natural protein)
chain: not shown
notes: vector a gift from Pontus Aspenström; also called pRK5-myc-RhoU; full-length RhoU; source: COS7, transfected, in lysate; not shown: Myc, N-terminal, kept
stoichiometry N: 2
